± gives the standard deviation.

Experimental findings from the supplement of paper PMC10567573 are described below.

The data set can be described thus: protein stability index of a GFP-peptide fusion (GPS, HEK-293T) (PSI 1-6); higher = more stable.
The mark [1] stands for this setting: treatment: DMSO, c terminus: a fixed tail appended.
The mark [2] stands for this setting: treatment: MLN4924 1 uM, 8 h, c terminus: a fixed tail appended.
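Further: 24-mer peptide tiles fused after GFP, lentivirally expressed, FACS-sorted into six equal bins by GFP/DsRed ratio, decoded by Illumina sequencing, PSI is the read-weighted mean bin number.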

Take FYPALWPQLRICLRVSPAEQPRLE [FBXO33]: the protein stability index was 2.39 ± 0.46 under setting [1] and 2.3 ± 0.27 under setting [2]. The matching figures for FYSNLILQHEERETRQKKLEVAME [STK38L]: 3.08 ± 0.2 and 3.08 ± 0.33. In the same order, the values of GAHSNAPITAHAEVEVVEEAKCCC [CSNK1G1] are 4.79 ± 0.22 and 5.23 ± 0.21.

For GALGMSNRDSYFYAAIVAVVAVHV [VMA21], the protein stability index reads like this: under setting [1], 2.77 ± 0.45; under setting [2], 2.81 ± 0.22. With GALTPTPAPTTTTATREEASTSLP [CLPTM1], the protein stability index reads like this: under setting [1], 5.28 ± 0.33; under setting [2], 5.58 ± 0.22. As to GANINAQTEETQETALTLACCGGF [ANKRD17], the protein stability index came to 4.63 ± 0.15 under setting [1] and 4.59 ± 0.31 under setting [2]. For GARLVAACSAWLCPGLRLPGSLAG [AUH], the protein stability index by setting is: under setting [1], 2.55 ± 1.2; under setting [2], 3.26 ± 0.84.

Regarding GDSGFLVVRGGEVVHRSDEQQHYF [PPTC7], the protein stability index under setting [1] is 3.75 ± 0.41 and the protein stability index under setting [2] was determined as 3.54 ± 0.23. In the same order, the values of GDTLRTFSLVLVLDLSKPNDLWPT [DYNC2LI1] are 2.89 ± 0.37 and 2.82 ± 0.32. As for GERVAARGYWGDIATGPFVAFGIE [DNAAF3], the protein stability index amounted to 2.05 ± 0.3 under setting [1] and 2.35 ± 0.28 under setting [2]. For the sequence GFALDILFAIANGFSPSYEFFAVT [SLC22A15], the protein stability index by setting is: under setting [1], 3.3 ± 0.042; under setting [2], 3.29 ± 1.1. In the same order, the values of GFAVKALWGRTQEEAEELAKEMSV [GFOD1] are 4.24 ± 0.13 and 4.07 ± 0.3. The matching figures for GFFDVLGNDRRREWAALGNMSKED [ACBD3]: 3.85 ± 0.44 and 4.551 ± 0.018. The matching figures for GFLPWLMNEVEKTMEYSMVGRTVL [RSPH3]: 2.8 ± 0.54 and 2.94 ± 0.41. With GFLTVTNLGVENMNHYKKTTLEIH [PTPN9], the protein stability index by setting is: under setting [1], 1.93 ± 0.59; under setting [2], 1.92 ± 0.4. Take GGEFQCGLEAASVYSDHTNTNNLT [RNF180]: the protein stability index was found to be 2.42 ± 0.36 under setting [1] and 2.42 ± 0.29 under setting [2]. GGLATGIAGGLAGMGGIQNEKETM [KRT18]: the protein stability index runs as follows: under setting [1], 4.95 ± 0.33; under setting [2], 4.58 ± 0.39. The matching figures for GGTPHCEPCQLPSESPGSLSEVLA [DNAAF3]: 4.19 ± 0.49 and 4.56 ± 0.33. The matching figures for GHSQEKTHSREKSSQESGEEAGSQ [CHGB]: 5.52 ± 0.56 and 5.45 ± 0.33. In the same order, the values of GIKAQVALRLAELARRRRRRQARR [NOP53] are 4.1 ± 0.34 and 3.85 ± 0.25. With GIRLSENVIDRMKESSPSGSKSQR [CHCHD3], the protein stability index runs as follows: under setting [1], 4.65 ± 0.19; under setting [2], 4.72 ± 0.2. In the same order, the values of GKAFPSGCSAVSEPASESVVGALP [TRAF3IP2] are 4.33 ± 0.14 and 4.59 ± 0.24. As for GKDHEILRRRIENGAKELWFFLQS [FUT8], the protein stability index is, setting by setting: under setting [1], 2.08 ± 0.65; under setting [2], 2.36 ± 0.27. In the same order, the values of GKIVGSLCAIAGVLTIALPVPVIV [KCNA1] are 3.19 ± 0.34 and 3.22 ± 0.44. The matching figures for GKSFRQRPSLVIHLRIHTGEKPYK [ZNF449]: 2.72 ± 0.53 and 2.61 ± 0.65. For GKTDDTLALLNLACMMTITFLPYT [TMEM175], the protein stability index was 3.21 ± 0.33 under setting [1] and 3.08 ± 0.16 under setting [2]. As to GKTMELFCQTDQTCICYLCMFQEH [TRIM29], the protein stability index under setting [1] was 2.34 ± 0.064 and the protein stability index under setting [2] worked out at 2.33 ± 0.25. The matching figures for GLAGFFASVAMICAIASGSELSES [SLC29A1]: 3 ± 0.53 and 2.9 ± 0.37.

For the sequence GLDPEPLPLMDLCRRSVRLALGRE [SPSB1], the protein stability index reads like this: under setting [1], 4.02 ± 0.61; under setting [2], 3.62 ± 0.2. Take GLEAPRDLEAKEVTPRTALLTWTE [TNXB]: the protein stability index by setting is: under setting [1], 3.22 ± 0.4; under setting [2], 4.95 ± 0.29.

With GLGPTSEPFPSSDDSPRSALAAAT [SPAG8], the protein stability index by setting is: under setting [1], 4.95 ± 0.19; under setting [2], 5.18 ± 0.038. As for GLRLRLPRRESLLRGLCRPLRPLL [C6orf223], the protein stability index is, setting by setting: under setting [1], 2.15 ± 0.13; under setting [2], 2.2 ± 0.29. Regarding GMADVGTVCDPARSCAIVEDDGLQ [ADAMTS4], the protein stability index is, setting by setting: under setting [1], 4.62 ± 1.1; under setting [2], 5.33 ± 0.088. Turning to GNDRRREWAALGNMSKEDAMVEFV [ACBD3], the protein stability index is 4.11 ± 0.24 under setting [1] and 4.3 ± 0.26 under setting [2].

As for GPEHATRLNGTAKGERRREPGGYD [DVL3], the protein stability index by setting is: under setting [1], 5.13 ± 0.26; under setting [2], 5.18 ± 0.19.

Take GPPGRSIGGAAPSLGALDLLGPAT [SERTAD1]: the protein stability index by setting is: under setting [1], 3.79 ± 0.14; under setting [2], 3.81 ± 0.11. In the same order, the values of GQFVMKTRRTLKGHGNKVLCMDWC [GNB5] are 2.16 ± 0.32 and 2.32 ± 0.3. In turn, GQLVRNDSLWHRSDSAPRNKISRF [MFF] returned a protein stability index under setting [1] of 3.66 ± 0.87 and a protein stability index under setting [2] of 4.04 ± 0.21. The matching figures for GQVIWGMSWAKLARQATNLKVNFF [FBXO39]: 2.2 ± 0.72 and 2.2 ± 0.52.

With GQWLGGRQIRTNWATRKPPAPKST [TIA1], the protein stability index is 3.57 ± 0.3 under setting [1] and 3.73 ± 0.34 under setting [2]. As to GRHAQTVETLLRHGAHINLQSLKF [RIPK4], the protein stability index is, setting by setting: under setting [1], 2.34 ± 0.14; under setting [2], 2.65 ± 0.45. The matching figures for GRPGIVAWTLINLSFAAKQRELHS [DHCR7]: 2.81 ± 0.31 and 3.02 ± 1. The matching figures for GSCGQGRTIRHVYCKTSDGRVVPE [ADAMTSL2]: 3.66 ± 0.31 and 3.57 ± 0.58. With GSGVIGRSWAMLFASGGFQVKLYD [CRYL1], under setting [1], the protein stability index was 2.33 ± 0.31. Turning to GSHPQQTQKLEEIKENAQDTMRQI [TOR1AIP2], the protein stability index came to 5.27 ± 0.26 under setting [1] and 5.38 ± 0.24 under setting [2]. The matching figures for GSQAGGSGSAGQYGSDQQHHLGSG [MYOZ1]: 4.94 ± 0.23 and 5.17 ± 0.18. As to GTEITIAFDFDYGNCKYKVDCACL [KMT2E], the protein stability index runs as follows: under setting [1], 3.01 ± 0.52; under setting [2], 2.39 ± 0.5. For GTPGPFTKEGGMLAYYEVCSWKGA [CHIT1], the protein stability index is 2.47 ± 0.17 under setting [1] and 2.55 ± 0.55 under setting [2]. In the same order, the values of GVFKFLRSEAVAQLWGQKKKNSNM [ELF3] are 2.83 ± 0.18 and 2.41 ± 0.33. Consider GVKSRIQALRQMNEGAIDCVNYEG [DLC1], for which the protein stability index is, setting by setting: under setting [1], 3.77 ± 0.32; under setting [2], 3.87 ± 0.36. The matching figures for GVSALCAICGDRATGKHYGASSCD [HNF4A]: 3.6 ± 0.2 and 3.75 ± 0.45.

As to GWAKHIPGFSTLSLADQMSLLQSA [ESRRG], the protein stability index runs as follows: under setting [1], 2.31 ± 0.22; under setting [2], 2.5 ± 0.16. In the same order, the values of GYRGYQYILECDHHGGDYKHWREW [CRYBA1] are 2.16 ± 0.25 and 1.93 ± 0.14.

With HEEVYFEPSSSKDSDENSKPSVDT [MIA2], the protein stability index under setting [1] turned out to be 5.62 ± 0.33 and the protein stability index under setting [2] was determined as 5.48 ± 0.31. In the case of HFLENLDKSRKGELLKKSDLQKDF [PRIM1], the protein stability index is, setting by setting: under setting [1], 3.52 ± 0.21; under setting [2], 3.95 ± 0.37. Take HGEGNHIYAYDAKIEIQTLTGLFK [CASP6]: the protein stability index was 2.17 ± 0.22 under setting [1] and 2.12 ± 0.33 under setting [2]. With HHCDDHLSLYQLSLERGTALFAQV [RSAD1], the protein stability index by setting is: under setting [1], 2.22 ± 0.66; under setting [2], 2.03 ± 0.2. The matching figures for HHHGRSRPDRSSQGGSLPSEEKGH [CHGB]: 5.34 ± 0.06 and 5.31 ± 0.083. In the same order, the values of HLAVDKNTTCVGRYPVCKFPSLQV [FEM1C] are 2.46 ± 0.25 and 2.44 ± 0.26. In the same order, the values of HLPVTFPGKDYDADRQCQLTFGPD [ADAMTS4] are 4.12 ± 0.26 and 4.38 ± 0.24. For HLTKKDLRVHLKMVDSFHRTSLQY [PPFIA4], the protein stability index by setting is: under setting [1], 2.24 ± 0.25; under setting [2], 2.11 ± 0.41.

For the sequence HLTVVAIFYGSGIFNYMRLGSTKL [OR3A1], the protein stability index stood at 3.1 ± 0.62 under setting [1] and 2.76 ± 0.37 under setting [2]. The matching figures for HNRVSKEDEDIYKLRHDLKKTSIT [PLK2]: 4.02 ± 0.2 and 4.12 ± 0.081.

For HPKDGPSPGGTLMDLSERQEVSSV [DLC1], the protein stability index came to 5.15 ± 0.25 under setting [1] and 5.23 ± 0.21 under setting [2]. The matching figures for HQCHKVIRGRYLVALGHAYHPEEF [PDLIM7]: 2.17 ± 0.29 and 2.2 ± 0.62.

As to HRGLRCSWEGLAVLDSLLLTLLPQ [RSAD1], the protein stability index by setting is: under setting [1], 3.06 ± 0.41; under setting [2], 3.07 ± 0.3.

Regarding HSLRAVSTDPPHHDHHDEFCLMP [BEX1], the protein stability index was determined as 3 ± 0.6 (treatment: DMSO, c terminus: native) and 3.76 ± 0.5 (treatment: MLN4924 1 uM, 8 h, c terminus: native). Consider HSLVRSRHRIPEPEAAVLFRQMAT [TRIB3], for which the protein stability index by setting is: under setting [1], 3.18 ± 0.13; under setting [2], 3.31 ± 0.15.

HTFRATFQEPLYPALRLWEGAISI [TRIM14]: the protein stability index turned out to be 2.85 ± 0.57 under setting [1] and 2.69 ± 0.71 under setting [2]. In the same order, the values of HTQAENAEFMRNFQKGQVTRDGFK [HMOX1] are 4.5 ± 0.17 and 4.54 ± 0.23. The matching figures for HTRSWAVLKLLLLLLLFGVAGGLV [LRRC59]: 2.56 ± 0.44 and 2.44 ± 0.35.

On to HTSSEYDMLREMFSDSRSNNDDDE [TAF7L], for which the protein stability index came to 5.57 ± 0.28 under setting [1] and 5.24 ± 0.53 under setting [2].
